Reference: publication PMC12808825, “Structural and functional modulation of human kynurenine aminotransferase I enhances selenium-driven redox metabolism for cancer therapy” (Redox Biology, 2025)

Molecular target: the molecule itself
Experiment: SEC; size-exclusion chromatography after elution from the His Trap Nickel column; estimated apparent molecular weight 113 kDa

B1: Human kynurenine aminotransferase 1 (hKYAT1), wild-type, recombinant (enzyme)
chain: MAKQLQARRLDGIDYNPWVEFVKLASEHDVVNLGQGFPDFPPPDFAVEAFQHAVSGDFMLNQYTKTFGYPPLTKILASFFGELLGQEIDPLRNVLVTVGGYGALFTAFQALVDEGDEVIIIEPFFDCYEPMTMMAGGRPVFVSLKPGPIQNGELGSSSNWQLDPMELAGKFTSRTKALVLNTPNNPLGKVFSREELELVASLCQQHDVVCITDEVYQWMVYDGHQHISIASLPGMWERTLTIGSAGKTFSATGWKVGWVLGPDHIMKHLRTVHQNSVFHCPTQSQAAVAESFEREQLLFRQPSSYFVQFPQAMQRCRDHMIRSLQSVGLKPIIPQGSYFLITDISDFKRKMPDLPGAVDEPYDRRFVKWMIKNKGLVAIPVSIFYSVPHQKHFDHYIRFCFVKDEATLQAMDEKLRKWKVEL
notes: human kynurenine aminotransferase 1 (KYAT1), wild type; The PDB entries are cited crystal structures of human KYAT1, not necessarily of this construct; also called KAT1; cysteine-S-conjugate beta-lyase 1; source: E. coli BL21, purified (His Trap Nickel column, size-exclusion chromatography)
stoichiometry N: 2
